According to article PMC2120674:

Key:
[1] = biological target: two chain urokinase-type plasminogen activator (uPA); test: SDS-PAGE of the protease-serpin complex
[2] = biological target: human urokinase-type plasminogen activator receptor (uPAR) expressed in mouse LB6 clone 19 cells (human) (UniProt Q03405); test: radioligand binding
Chain of UniProt Q03405 (Q03405 23-305): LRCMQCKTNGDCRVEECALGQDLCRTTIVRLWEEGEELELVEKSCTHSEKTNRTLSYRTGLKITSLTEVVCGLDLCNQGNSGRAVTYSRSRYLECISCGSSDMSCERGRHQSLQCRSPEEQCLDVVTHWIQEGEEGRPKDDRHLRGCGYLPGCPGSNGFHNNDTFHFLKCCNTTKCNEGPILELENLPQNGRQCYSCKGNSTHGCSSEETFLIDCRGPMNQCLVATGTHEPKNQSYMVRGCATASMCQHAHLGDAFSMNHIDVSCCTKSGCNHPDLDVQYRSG

Substance	percent of uPA converted to the complex form [1] [%]	bound radioactivity at 4C (with cycloheximide) [2] [fmol/well]	bound radioactivity at 4C (without cycloheximide) [2] [fmol/well]
plasminogen activator inhibitor type-1 (PAI-1), recombinant active (from UniProt P05121 24-402) (natural protein)	> 90		
uPA-PAI-1 complex (urokinase with plasminogen activator inhibitor type-1) (from UniProt P05121 24-402)		19.4	18.7
